Reference: the supplement of paper PMC9876800

System: peptide library, one residue held at a place counted from the S/T acceptor
Assay: relative phosphorylation of the sub-library (ratio to the mean residue at this position); human; higher = residue favoured
Method in brief: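 Spots on streptavidin membranes were phosphorimaged and quantified by densitometry to measure phosphorylation of biotinylated degenerate peptide sub-libraries by purified recombinant kinases, human or orthologue constructs. The reactions ran in 384-well plates for 90 min under kinase-specific conditions, with peptides at 50 μM and 50 μM ATP spiked with γ-32P-ATP. Relative sub-library phosphorylation is the ratio to the mean residue at that position.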

Chain of MAP4K3, construct: aa1-380 (Q8IVH8 1-380, looked up): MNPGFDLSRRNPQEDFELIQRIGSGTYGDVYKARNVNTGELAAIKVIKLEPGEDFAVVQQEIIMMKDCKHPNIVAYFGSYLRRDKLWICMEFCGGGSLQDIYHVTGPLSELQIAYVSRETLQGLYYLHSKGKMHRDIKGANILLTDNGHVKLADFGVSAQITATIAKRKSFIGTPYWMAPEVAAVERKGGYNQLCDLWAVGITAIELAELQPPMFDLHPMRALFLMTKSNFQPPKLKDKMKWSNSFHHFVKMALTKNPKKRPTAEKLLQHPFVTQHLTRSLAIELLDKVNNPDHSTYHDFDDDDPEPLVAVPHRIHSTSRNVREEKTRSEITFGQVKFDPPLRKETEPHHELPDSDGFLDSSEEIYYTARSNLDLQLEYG
Chain of NEK4, construct: Full length (P51957 whole entry, looked up): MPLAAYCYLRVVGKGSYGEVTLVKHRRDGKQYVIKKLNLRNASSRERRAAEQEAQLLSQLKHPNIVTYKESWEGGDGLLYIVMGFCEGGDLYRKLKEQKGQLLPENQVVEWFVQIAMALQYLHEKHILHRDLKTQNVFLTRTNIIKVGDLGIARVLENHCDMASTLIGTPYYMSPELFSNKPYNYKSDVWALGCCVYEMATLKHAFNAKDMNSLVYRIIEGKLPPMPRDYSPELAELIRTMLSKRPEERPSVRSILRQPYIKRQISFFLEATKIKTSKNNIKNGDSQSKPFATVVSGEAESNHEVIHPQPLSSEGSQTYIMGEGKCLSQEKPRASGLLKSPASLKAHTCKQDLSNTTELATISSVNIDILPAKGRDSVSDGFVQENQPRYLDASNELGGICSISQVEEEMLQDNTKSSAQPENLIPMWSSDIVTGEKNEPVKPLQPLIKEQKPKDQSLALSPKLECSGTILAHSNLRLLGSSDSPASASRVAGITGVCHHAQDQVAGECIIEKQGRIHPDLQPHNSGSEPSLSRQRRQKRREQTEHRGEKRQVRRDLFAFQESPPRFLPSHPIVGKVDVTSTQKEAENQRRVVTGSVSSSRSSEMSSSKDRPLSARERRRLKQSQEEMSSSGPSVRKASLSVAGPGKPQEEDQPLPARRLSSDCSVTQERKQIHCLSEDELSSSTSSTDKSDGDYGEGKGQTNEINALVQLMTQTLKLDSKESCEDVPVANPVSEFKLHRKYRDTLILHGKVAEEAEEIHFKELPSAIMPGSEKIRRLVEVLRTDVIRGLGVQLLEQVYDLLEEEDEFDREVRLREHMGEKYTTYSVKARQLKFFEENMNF
Chain of MAP4K5, construct: Full length (Q9Y4K4 whole entry, looked up): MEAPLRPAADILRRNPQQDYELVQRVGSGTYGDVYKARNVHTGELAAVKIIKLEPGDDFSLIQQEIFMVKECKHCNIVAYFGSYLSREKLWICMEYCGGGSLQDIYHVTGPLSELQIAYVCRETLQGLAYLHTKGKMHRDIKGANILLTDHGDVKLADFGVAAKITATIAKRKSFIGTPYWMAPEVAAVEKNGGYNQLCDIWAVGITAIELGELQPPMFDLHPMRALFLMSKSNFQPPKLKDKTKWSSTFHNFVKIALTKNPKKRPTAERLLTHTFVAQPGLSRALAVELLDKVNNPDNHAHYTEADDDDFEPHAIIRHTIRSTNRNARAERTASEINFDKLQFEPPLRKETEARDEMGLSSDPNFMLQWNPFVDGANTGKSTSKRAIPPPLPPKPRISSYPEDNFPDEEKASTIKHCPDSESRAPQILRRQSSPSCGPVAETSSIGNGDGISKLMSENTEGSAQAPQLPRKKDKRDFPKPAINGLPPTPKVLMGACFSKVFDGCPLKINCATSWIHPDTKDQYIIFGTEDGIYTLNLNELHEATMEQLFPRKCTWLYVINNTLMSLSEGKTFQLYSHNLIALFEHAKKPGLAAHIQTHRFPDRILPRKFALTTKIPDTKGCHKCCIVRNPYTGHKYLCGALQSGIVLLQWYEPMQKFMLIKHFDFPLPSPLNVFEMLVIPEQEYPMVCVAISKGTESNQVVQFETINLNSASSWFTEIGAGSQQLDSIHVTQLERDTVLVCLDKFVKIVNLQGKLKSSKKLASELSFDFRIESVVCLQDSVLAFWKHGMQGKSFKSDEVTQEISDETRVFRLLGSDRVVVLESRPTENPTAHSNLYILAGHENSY
Chain of MELK, construct: aa1-340 (Q14680 1-340, looked up): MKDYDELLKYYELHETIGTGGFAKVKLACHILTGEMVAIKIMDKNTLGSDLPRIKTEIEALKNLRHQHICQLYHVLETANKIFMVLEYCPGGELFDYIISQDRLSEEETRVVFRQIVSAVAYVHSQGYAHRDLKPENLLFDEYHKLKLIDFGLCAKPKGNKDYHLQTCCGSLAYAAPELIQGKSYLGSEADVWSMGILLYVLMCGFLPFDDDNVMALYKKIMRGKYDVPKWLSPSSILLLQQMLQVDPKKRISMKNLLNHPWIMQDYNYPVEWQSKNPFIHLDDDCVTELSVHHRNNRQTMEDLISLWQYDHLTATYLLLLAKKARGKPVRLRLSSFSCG

MELK, construct: aa1-340 (from UniProt Q14680)
relative phosphorylation
Details	at +1	at +2	at +3	at +4	at -1	at -2	at -3	at -4	at -5
A fixed	1.02	0.961	0.744	0.748	0.777	1.24	0.757	1.12	0.927
D fixed	0.349	0.324	0.902	0.634	0.495	0.251	0.225	0.47	0.446
E fixed	0.447	0.274	0.436	0.558	0.469	0.305	0.256	0.658	0.392
F fixed	2.31	0.923	1.21	0.987	0.78	1.07	0.478	0.674	1.18
G fixed	0.949	0.79	0.855	1.02	0.711	0.78	0.707	1.24	0.884
H fixed	0.994	1.02	1.47	1.04	1.25	1.33	1.18	1.11	0.871
I fixed	0.511	1.64	0.77	1.26	0.783	0.667	0.347	0.669	1.13
K fixed	1.38	0.858	0.938	1.03	1.89	1.63	2.74	2.08	1.49
L fixed	0.752	1.79	1.02	1.84	1.07	0.681	0.454	0.761	1.76
M fixed	1.14	1.68	0.986	1.1	1.1	0.951	0.484	0.903	1.22
N fixed	0.837	0.873	1.48	0.988	1.19	1.09	0.742	1.02	0.711
P fixed	0.171	0.598	0.553	1.23	1.07	0.419	0.751	1.01	1.03
Q fixed	1.54	0.723	1.05	0.952	1.12	1.42	0.784	0.844	0.902
R fixed	1.72	1.28	1.12	1.03	1.71	1.79	5.37	1.81	1.67
V fixed	0.705	1.54	0.79	1.05	0.885	0.893	0.394	0.701	0.814
W fixed	0.959	0.808	1.69	0.848	0.601	1.15	0.676	1.1	0.766
Y fixed	1.22	0.935	1	0.673	1.09	1.33	0.653	0.831	0.806
pThr fixed	0.647	0.364	0.33	0.662	0.311	0.354	0.33	0.438	0.508
pTyr fixed	0.551	0.407	0.409	0.425	0.709	0.295	0.332	0.382	0.517

NEK4, construct: Full length (from UniProt P51957)
relative phosphorylation
Details	at +1	at +2	at +3	at +4	at -1	at -2	at -3	at -4	at -5
A fixed	0.695	0.961	0.797	0.821	1.32	0.985	1.18	1.02	0.983
D fixed	0.169	0.409	0.375	0.693	0.63	0.601	0.422	0.811	0.797
E fixed	0.153	0.368	0.341	0.66	0.638	0.505	0.416	0.733	0.662
F fixed	1.03	0.851	1.73	1.03	0.868	1.16	1.64	1.14	1.21
G fixed	0.921	0.795	0.91	1.16	1.25	1.16	1.2	1.32	1.04
H fixed	0.775	1.2	1.1	1.08	1.02	1.02	0.998	1.05	1.03
I fixed	1.63	0.625	0.899	0.69	0.583	0.8	0.658	0.754	0.822
K fixed	0.974	2.01	0.977	1.56	1.4	0.902	0.985	1.17	1.16
L fixed	2.19	0.939	1.23	0.996	1.06	1.61	1.9	1.12	0.79
M fixed	2.2	1.04	1.07	0.932	1.36	1.47	1.72	0.969	0.966
N fixed	0.592	0.86	0.652	0.92	0.935	1.43	0.674	0.913	0.962
P fixed	0.176	0.993	1.03	1.28	0.374	0.588	0.973	0.912	1.22
Q fixed	1.02	0.971	0.842	1.08	1.09	1.01	0.766	0.916	0.983
R fixed	1.17	2.43	1.25	1.31	1.77	1.07	0.953	1.04	1.32
V fixed	0.929	0.838	0.74	0.653	0.666	0.677	0.573	0.835	0.878
W fixed	1.44	0.722	1.62	1.25	0.925	1.18	1.02	1.31	1.11
Y fixed	0.937	0.986	1.44	0.891	1.09	0.832	0.921	1	1.08
pThr fixed	0.423	0.506	0.526	0.476	0.332	0.64	0.735	0.793	0.867
pTyr fixed	0.248	0.588	0.557	0.506	0.752	1.11	0.806	0.755	1.01

MAP4K5, construct: Full length (from UniProt Q9Y4K4)
relative phosphorylation
Details	at +1	at +2	at +3	at +4	at -1	at -2	at -3	at -4	at -5
A fixed	0.585	0.999	0.641	0.969	0.963	1.36	0.963	1.03	1.3
D fixed	0.17	0.718	0.375	0.726	0.63	0.491	0.59	0.756	0.739
E fixed	0.173	0.581	0.319	0.67	0.455	0.368	0.553	0.812	0.721
F fixed	1.1	0.535	0.704	0.783	0.704	1.07	0.744	0.995	0.974
G fixed	0.585	1.04	0.891	1.21	1.79	1.43	1.37	1.33	1.42
H fixed	0.605	1.13	1.23	1.14	1.3	1.41	1.21	1.09	1.02
I fixed	1.89	0.373	0.468	0.709	0.294	0.645	0.528	0.684	0.66
K fixed	0.599	2.46	1.81	1.8	1.43	0.905	2.01	1.25	1.3
L fixed	3.52	0.673	0.672	0.796	0.816	0.636	0.628	0.76	0.607
M fixed	2.8	0.797	0.688	0.88	1	0.773	0.697	0.853	0.819
N fixed	0.506	1.02	0.973	1.04	1.43	1.18	1.13	0.933	0.943
P fixed	0.32	1.13	1.14	1.12	1.2	1.07	0.999	1.24	1.37
Q fixed	0.558	1.12	0.907	1.1	1.01	0.806	1.1	0.96	0.877
R fixed	0.697	2.53	3.55	1.49	1.65	1.36	1.77	1.25	1.25
V fixed	0.78	0.513	0.609	0.718	0.362	0.77	0.591	0.78	0.906
W fixed	1.28	0.647	1.08	0.951	0.778	1.3	1.13	1.23	1.07
Y fixed	0.832	0.738	0.94	0.9	1.19	1.43	0.989	1.05	1.02
pThr fixed	0.61	0.623	0.7	0.522	0.433	0.776	0.874	0.936	1.02
pTyr fixed	0.326	0.397	0.716	0.56	0.602	0.695	0.91	0.881	1.1

MAP4K3, construct: aa1-380 (from UniProt Q8IVH8)
relative phosphorylation
Details	at +1	at +2	at +3	at +4	at -1	at -2	at -3	at -4	at -5
A fixed	0.464	0.792	0.671	0.932	0.978	1.09	0.815	0.964	1.07
D fixed	0.179	0.667	0.375	0.655	0.611	0.522	0.553	0.851	0.835
E fixed	0.151	0.643	0.296	0.592	0.437	0.406	0.569	0.894	0.687
F fixed	1.09	0.464	0.536	0.71	0.692	1.16	0.778	0.991	0.922
G fixed	0.613	0.996	0.846	1.12	1.93	1.43	1.51	1.39	1.32
H fixed	0.606	1.12	1.04	1.07	1.21	1.34	1.13	1.04	1.07
I fixed	1.8	0.357	0.432	0.733	0.279	0.676	0.556	0.696	0.772
K fixed	0.642	2.68	2.32	1.93	1.66	0.987	2.27	1.34	1.49
L fixed	3.72	0.602	0.549	0.722	0.859	0.655	0.602	0.748	0.637
M fixed	2.73	0.664	0.51	0.9	1.05	0.687	0.651	0.869	0.862
N fixed	0.632	1.11	0.868	1.05	1.54	1.16	1.07	0.867	1.01
P fixed	0.418	1.16	0.942	1.11	0.741	0.854	1.08	1.13	1.11
Q fixed	0.655	0.952	0.952	1.17	0.998	0.785	0.843	0.928	0.864
R fixed	0.67	3.22	4.5	1.67	1.92	1.5	2.13	1.48	1.45
V fixed	0.672	0.428	0.497	0.743	0.362	0.815	0.529	0.695	0.833
W fixed	1.14	0.528	0.893	0.999	0.668	1.3	0.935	1.16	1.07
Y fixed	0.821	0.615	0.772	0.885	1.06	1.63	0.978	0.968	1.01
pThr fixed	0.928	0.749	0.717	0.614	0.437	0.985	1.11	1.13	1.32
pTyr fixed	0.355	0.389	0.637	0.486	0.516	0.763	1.04	0.852	1.16
